# Reference: the DeepSol protein solubility set
# Test: soluble on expression in E. coli; label from the status in PepcDB or PDB records
row,Sequence,soluble on expression in E. coli
1,MAIKLIAIDMDGTLLLPDHTISPAVKNAIAAARARGVNVVLTTGRPYAGVHNYLKELHMEQPGDYCITYNGALVQKAADGSTVAQTALSYDDYRFLEKLSREVGSHFHALDRTTLYTANRDISYYTVHESFVATIPLVFCEAEKMDPNTQFLKVMMIDEPAILDQAIARIPQEVKEKYTVLKSAPYFLEILDKRVNKGTGVKSLADVLGIKPEEIMAIGDQENDIAMIEYAGVGVAMDNAIPSVKEVANFVTKSNLEDGVAFAIEKYVLN,not soluble
2,MREVKAFVTQDIPLYHNLVMKHIPGADPELVLLNHYYEELDRIPLFEMTRAEINKLLAELGFYKKDHPEDQVPEEFRFSPAKDSPFEGRQSSTAAPETTEPSDSQHTDL,soluble
3,MGSDKIHHHHHHMTALDFLPNPPIKQELITPLFHLPYPNPSPIDPKVYKEQSNQAKALAQVFKKEEAHDFDYSSGSFLELFLALALEKKKLAIASSLHYNALKAAREVQKLGIEIFWLHPDVKSGVIEPNSLQEARTRGFELFFLPWANEDLLTLNPLESYGFSLDERLFVEASYPLALGIALPLLEKAHWLINGEILGIPRGYGAILGGEIPLHRPLMRANLFGVLHAALKAREILIENDDQKTLFYEHLSALLGENLSLFAPLKSCLPNALPLRFKGIRARSLIQALLLEKITSLNGQECLFGFSKPSSVLQSMGYDEDEARELLSVSFLPFGSIEELERIAKILALRYKQIHLYS,not soluble
4,MSDKHINLVIVTGMSGAGKTVAIQSFEDLGYFTIDNMPPALVPKFLELIEQTNENRRVALVVDMRSRLFFKEINSTLDSIESNPSIDFRILFLDATDGELVSRYKETRRSHPLAADGRVLDGIRLERELLSPLKSMSQHVVDTTKLTPRQLRKTISDQFSEGSNQASFRIEVMSFGFKYGLPLDADLVFDVRFLPNPYYQVELREKTGLDEDVFNYVMSHPESEVFYKHLLNLIVPILPAYQKEGKSVLTVAIGCTGGQHRSVAFAHCLAESLATDWSVNESHRDQNRRKETVNRS,not soluble
5,MLDLTTNPIDLTRALVDIESPSHYEKNIADAIEQALHAIDNVEVLRHGNTLVARTHRGLGERVILAGHIDTVPIADNVPSHMEGDVMFGCGTVDMKSGMAVYLHAFATLANHPALAKDLTVVCYEGEEVASEYNGLGHVQAAHPDWLSGDLALLGEPSGAVIEAGCQGTIRLRVTAHGVRAHSARSWLGDNAMHKLAPVITNIAQYHAQEMLVDGCLYHEGLNIVHCESGVATNTIPDEAWMFVNFRFAPNRSVDEALAHMLEVLDLPEGVTYDIDDAVPGARPGLDRPAAAALLEATGGKFRAKYGWTDVSRFSEIGVPAVNFGPGDPAYCHKKDEQCPVSMITEVSRTLVHYLTSTNSQTTGA,not soluble
6,MKYEVVITSGNSNQAPIGAFFKGDFVTLHLYGGSHTFENLQKDGFYILNTCSPYLIAKSVLDDAGDYEYLDNDGIKIPYLKDSYKIELIEIKSRKIVETKNEFGSSKLMIVEGKPIFEKILNCNTSAYNRADGAVVEMAVLYSRKNMISKEEINDEITRLMKIIKKVGSKNHIELAKKLGVLEHHHHHH,not soluble
7,MKGVHHRPHEAVPTWACGWGVATTEHMAVSRRKHFSSICLHAQGSSRLPVLSTGTAVSELLRTSLCQVVELGPSPYLSLVPTVLLTVQHLGALAWGWRPW,soluble
8,MSSTRTASGRTSGRNGTWRNWGGNVSARPAREVTPASVDELADAVRRAAEDGQRVKAVGTGHSFTSIAATDGVLIRPQLLTGIRSIDRDAMTVTVEAGTPLKRLNMALAREGLSLTNMGDIMEQTVSGATSTGTHGTGRDSASIAAQIRGLELVTADGSVLTCSADENPEVFAAARIGLGALGVVTAITFAVEPVFLLTAREEPMPFDRVLADFDALWSENEHFEFYWFPHTNSTNTKRNNRSAGPERPVGRFQGWLDDEFLSNGLFQAVNWVGRAAPATIPSIARISSRALSARTYTDTPYKVFTSPRRVRFVEMEYAVPREAVVEVLRELRTMVDRSRLRISFPVEVRTAPADDITLSTASARDSAYIAVHMFRGTPYQAYFTAAERIFTAHEGRPHWGKVHTRDAGYFSRVYPRFGEFTALRDRLDPDRLFQNDYLRRVLGPLEHHHHHH,soluble
9,MLIAVPLDDTNFSENLKKAKEKGADIVELRVDQFSDTSLNYVKEKLEEVHSQGLKTILTIRSPEEGGREVKNREELFEELSPLSDYTDIELSSRGLLVKLYNITKEAGKKLIISYHNFELTPPNWIIREVLREGYRYGGIPKIAVKANSYEDVARLLCISRQVEGEKILISMGDYGKISRLAGYVFGSVITYCSLEKAFAPGQIPLEEMVELRKKFYRL,soluble
10,MGSDKIHHHHHHMVRPRIKLTEHLSTEEIEQSYRRCEDAQEKTRWLVIKLLNQQPQLSAQKVAEIVGFSGDWVRKIVRRYNKLGANGIINQQKLKPGGKKLALTNEQQQWLRQRLASPPEDGGLWSAPKVGELIRVQFGITLHVTTAWDYLKRLGFSLQQPRPLHTEAATFVQRQMFKTELTEFVRLLRFLHPHKSVEVWAEDEARLGLKPIVRRVWTPVGHRPNAVHRTRYQWLYTYGFVHPATGESFFLILPRVNIAVMQMALDAFAAEVNPHHHKIIVLLVDQAGWHTSKQLMLPAGIILFPLPAYTPQLQPTECVWSLLREAVANQMFSTLDELETVLISRCQWLMSHPQIVHGKVGFDWICQI,not soluble
11,MGSDKIHHHHHHMTKQSKTQIRICFVGDSFVNGTGDPECLGWTGRVCVNANKKGYDVTYYNLGIRRDTSSDIAKRWLQEVSLRLHKEYNSLVVFSFGLNDTTLENGKPRVSIAETIKNTREILTQAKKLYPVLMISPAPYIEQQDPGRRRRTIDLSQQLALVCQDLDVPYLDVFPLLEKPSVWLHEAKANDGVHPQAGGYTEFARIVENWDAWLNWFR,soluble
12,PKDDRLSAWKFWALYAADTGGALRIDAGAVAAVTAGGNSLLAVGITEVIGDFHAGEIVEILGPEGEIIGRGEVAYDSAVLITMLGKQTAQLPEGLQRPVVHADYLSDYASRA,not soluble
13,MNPLEAVEHQGGLQLSTPPYEIAVDQKCYWRNQPIGLTLQGHNESIWFKGFVIQPFKWNNDQLGERFGQLVRLDDNGSWQQQCFRYQVSATHSHDEKKKHIKMWWKVDDEVDTVQFVATVVKHQTQFWVKSVRSRPLPPCRLNRDGFPNYQAPVPQIPPQVKQFKMETFKVFDSIVRRRPFNH,not soluble
14,PTSAPQHLTVEDVTDTTTTLKWRPPDRIGAGGIDGYLVEYCLEGSEEWVPANKEPVERCGFTVKDLPTGARILFRVVGVNIAGRSEPATLLQPVTIRE,soluble
15,HFESIQAVNKTLNKKGLPPIIVHFIEETLQDYELIGMLNNGYIKAIVLDSHKAKLWLNAMDDIKAHKKVPLRKNGNIAWVMRQNSPQLKAVVNKFIQKSRSGTLLGNVIYSKYIDNTNWLNKALNPKKIAQLEKLSA,not soluble
16,MSLATKLRRVRKSPPEGWDLIEPTLEQFEAKMREAETEPHEGKRKTEINWPIFRIHHQRSRYVYDMYYKKAEISRELYEFCLTAKFADAALIAKWKKQGYENLCCVKCVNTRDSNFGTACICRVPKSKLDAERVIECVHCGCHGCSG,not soluble
17,MSLRIYFDKILERASPKVERQALTHVERLAMVRRHGDFSLAYSTAVQQKLSYFGDADGYIAFGTKMKHHFALGDPVAAPARRPDFIKRFVETAGDPWFVQISEETARVLAGLGYKVNRLGIDTSLVLSEHDFSGKRNETVRYSERWLLKKGFSFEEDKRTVFLDEIARLSENWRGDRIVKRWEMGFLNRPFYDQLGTDMRRFVLHGPDGELIALLDFDPLFRDGKVIGYTTAFKRKHIDASPHAEIGLTKFAVDRFREEGISVVTLGLSPLVDVTPSGFAESDFWRNTFQRAYASPWVNRRRFNLQGQAAFKRRFHGKEEPVYIAFRKGTYVEMLGLLRLVKAIEGHHHHHH,not soluble
18,MDTPRPQLLDFQFHQNNDSFTLHFQQRLILTHNKDNPCLWIGSGIADIDMFRGNFSIKDKLQEKIALTDAIVSQSPDGWLIHFSRGSDISATLNISADDQGRLLLELQNDNLNHNRIWLRLAAQPEDHIYGCGEQFSYFDLRGKPFPLWTSEQGVGRNKQTYVTWQADCKENAGGDYYWTFFPQPTFVSTQKYYCHVDNSCYMNFDFSAPEYHELALWEDKATLRFECADTYISLLEKLTALLGRQPELPDWIYDGVTLGIQGGTEVCQKKLDTMRNAGVKVNGIWAQDWSGIRITSFGKRVMWNWKWNSENYPQLDSRIKQWYQEGVQFLAYINPYVASDKDLCEEAAQHGYLAKDASGGDYLVEFGEFYGGVVDLTNPEAYAWFKEVIKKNMIELGCGGWMADFGEYLPTDTYLHNGVSAEIMHNAWPALWAKCNYEALEETGKLGEILFFMRAGSTGSQKYSTMMWAGDQNVDWSLDDGLASVVPAALSLAMTGHGLHHSDIGGYTTLFEMKRSKELLLRWCDFSAFTPMMRTHEGNRPGDNWQFDGDAETIAHFARMTTVFTTLKPYLKEAVALNAKSGLPVMRPLFLHYEDDAHTYSLKYQYLLGRDILVAPVHEEGRSDWTLYLPEDNWVHAWTGEAFRGGEVTVNAPIGKPPVFYRADSEWAALFASLNSI,not soluble
19,TATNHQGLPAVDSEILEMPPEKADGVVEGIDVNGPKAQLMLRYPDGKREQITLPEQAKLLALVKHVQSKGYPNERFELLTNFPRRKLSHLDYDITLQEAGLCPQETVFVQE,soluble
20,MSLKILIPTAKEMNTDLPSIEAIPLKPESQTVLDALALYSASQLESFYKVSAEKAAEEFQNIQALKRQTAQHYPALKLFDGLMYRNIKRDKLTEAEQDYLENHVFITSALYGVVPALSPMAPHRLDFLMKLKVAGKTLKSHWKAVYDEALKKEEVIFSLLSSEFETVFSKEIRAKMVTFKFMEDRGGQLKIHSTISKKARGAFLTALIENQVQTVGEARRLNFAGFVYREDLSQPQGLVFVKEVEGHHHHHH,soluble
21,HSQRVIRELDEHGFWSAMIPQWEHIRGRMPRESVHIHTIDVHSMVVTANCATQSIRVARPDLLFLAALFHDIGKGYGRRHEEVGAEFVVDMATTLRLNPSDTQIVETLVAQHTIIPHIVGRYNPTSTEAIDKLLDAVNYDLLTLDLLEALVEADAQGTAPGVWSAVLRYGTRELCAQARQR,not soluble
22,MGHHHHHHSHMANSAGSMANSAGSKEFAYQNKVEELTSYAVQIANEFQSGQVDMRRLYPYQDILSTRKTQFIIFNEEQQPYFLPEGFHHPPREQLKKSEWNKLKKGQTVTIRADGRFDDEVSLVAQPIFVQNEFKGAVLLISPISGVEQMVNQ,not soluble
23,MKIDTNFLCDLWMALFQFSNDENINEKECTALVDIMSLVEKVLVLKLQDDVPNIVKILAVLTDFGDSELPHSMDSLLRAYEPDLDNPIKKVA,not soluble
24,MWPPNAENNHCNYSYHEHAELNPHDHYHHHHYPHSSVHHTECYQTLSCPSDLPVETSYYNSVPPSYQDLGQTDLSPQFWCAEVDCVHERCSTKEIPHEQSKIFEEISKECDHIMNSAGDCEKCQVEHENGAQEAIPINDLVDIVMQTVDNLKKEGSSNDETKLLSRKRQQNKVAAARYRDKQKAKWQDLLDQLEAEEDRNQRLKLQAGHLEKEVAEMRQAFLAKLAKK,not soluble
25,MEQKHNGIIFTAIPNESNEYYQPFYEDLIYFNECLNEKKSIADQLISLSVEEQDFHTSCFEYDDIWLRDVAPVVTNHLVKFKYRPNYLPDDQGRYLDQQFNKWLKKNDFEYVKSPLILDGGNLIWNKKDTVILTERIFDDNDDWTEEEIIEQLEWDLDVSRVIIIPAEEGDVLAHADGMVKFIDEHTMFISDFLGDHEFRYSVEEIIQEQMPEAEFIVVPSSYTEKGQYDQEIASAKGLYINMLESCDALYVPKFGLAKDEEVLRYIQQYTEKQVIQIHVGEISTMGGAMNCLTWYCPSHLLPSKMRRLKNQNEDFSMKKIFDWFLEHHHHHH,soluble
